# According to publication PMC3117843:
# B1: Galanthus nivalis agglutinin (natural protein)
# chain: SCLSDNILYSGETLSTGEFLNYGSFVFIMQEDCNLVLYDVDKPIWATNTGGLSRSCFLSMQTDGNLVVYNPSNKPIWASNTGGQNGNYVCILQKDRNVVIYGTDRWATG
# What was measured:
# [1] = biological target: HCV envelope glycoproteins E1 and E2 on HCV genotype 3a virus from patients' serum (Hepatitis C virus genotype 3a)
# [2] = biological target: HCV envelope glycoproteins E1 and E2 of genotype 3a on HCV pseudoparticles (Hepatitis C virus genotype 3a)
binder,measurement,setting,value
B1,"infection of Huh-7 cells by HCV 3a virus pre-incubated with GNA, HCV RNA by quantitative RT-PCR, EC50 (Figure 4)",[1],1 µg
same,"infection of Huh-7 cells by HCV 3a virus pre-incubated with GNA, HCV RNA by quantitative RT-PCR, EC90 (Figure 4)",[1],5 µg
same,"inhibition of HCVpp entry into Huh-7 cells, concentration of GNA for 50% reduction (Figure 3a and 3b)",[2],1 µg
